The source of these data is the supplement of paper PMC10065799, “High-throughput profiling of sequence recognition by tyrosine kinases and SH2 domains using bacterial peptide display” (eLife, 2023).

One data set concerns the target Jak2 (UniProt O60674). The experiment in a line: phosphorylation enrichment, bacterial display (enrichment ratio); higher = better substrate or ligand; peptides without Tyr show the background.
Another data set has as its target Fyn (UniProt P06241). The description is as above.
For the next data set, the system named is c-Src. Described as above.
In a further data set the target is MERTK (UniProt Q12866). The description is as above.
MERTK, sequence (Q12866 whole entry, looked up): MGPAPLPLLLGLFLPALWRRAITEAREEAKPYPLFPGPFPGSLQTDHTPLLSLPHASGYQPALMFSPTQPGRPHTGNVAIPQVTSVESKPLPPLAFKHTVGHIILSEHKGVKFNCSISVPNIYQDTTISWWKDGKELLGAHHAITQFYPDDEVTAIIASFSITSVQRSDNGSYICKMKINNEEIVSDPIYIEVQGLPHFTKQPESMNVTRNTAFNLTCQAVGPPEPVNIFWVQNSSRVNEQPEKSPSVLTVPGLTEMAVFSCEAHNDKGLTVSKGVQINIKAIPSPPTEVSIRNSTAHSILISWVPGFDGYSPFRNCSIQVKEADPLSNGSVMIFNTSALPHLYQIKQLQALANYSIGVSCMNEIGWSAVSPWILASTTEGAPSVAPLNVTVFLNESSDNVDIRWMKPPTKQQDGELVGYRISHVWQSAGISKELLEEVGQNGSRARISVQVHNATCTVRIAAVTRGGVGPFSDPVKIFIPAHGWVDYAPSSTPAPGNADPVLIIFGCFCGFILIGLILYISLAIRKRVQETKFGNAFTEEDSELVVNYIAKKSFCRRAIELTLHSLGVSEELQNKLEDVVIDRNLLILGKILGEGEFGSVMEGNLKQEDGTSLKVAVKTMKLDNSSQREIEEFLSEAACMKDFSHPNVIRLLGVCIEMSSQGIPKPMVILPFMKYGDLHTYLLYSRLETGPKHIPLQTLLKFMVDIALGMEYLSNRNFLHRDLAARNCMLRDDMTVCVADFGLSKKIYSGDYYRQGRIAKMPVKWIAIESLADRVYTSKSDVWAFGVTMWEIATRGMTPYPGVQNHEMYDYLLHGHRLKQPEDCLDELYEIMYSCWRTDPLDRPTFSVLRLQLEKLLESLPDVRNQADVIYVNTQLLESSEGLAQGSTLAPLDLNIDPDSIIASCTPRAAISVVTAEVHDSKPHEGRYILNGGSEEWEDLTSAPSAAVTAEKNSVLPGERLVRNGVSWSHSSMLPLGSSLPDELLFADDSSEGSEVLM
A further data set concerns the target Fes (UniProt P07332). The description is as above.
Another data set has as its target EPHB1 (UniProt P54762). The description is as above.
A further data set concerns Fer (mouse). Described as above.
A further data set concerns the target FGFR1 (UniProt P11362). The data set is described as above.
A further data set addresses FGFR3 (UniProt P22607). The description is as above.
The subject of the next data set is c-Abl (mouse). Described as above.
The next data set concerns AncSZ. The data set is described as above.
Another data set concerns the target Hck (UniProt P08631). The description is as above.
A further data set concerns the target EPHB2 (UniProt P29323). The data set is described as above.
Another data set concerns the target Grb2 SH2 (UniProt P62993). The experiment in a line: SH2 binding enrichment of the phosphorylated peptide, bacterial display (enrichment ratio); higher = better substrate or ligand; peptides without Tyr show the background.
The target of another data set is SHP2-C SH2. The description is as above.
The next data set deals with c-Src SH2. Described as above.
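For SH2 binding enrichment of the phosphorylated peptide, bacterial display in this document: peptide library displayed on the E. coli surface as eCPX fusions, selected cells deep-sequenced, score is each peptide's frequency after selection divided by its frequency in the input.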
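For phosphorylation enrichment, bacterial display in this document: 11-residue human phosphosite peptides and single-mutation variants displayed on the E. coli surface, counted by deep sequencing, each peptide's frequency after selection divided by its frequency in the unselected input library; frequency after pTyr selection over input frequency; kinase dosed for 20-30% of maximal phosphorylation in three min.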

EPHB1, sequence (P54762 whole entry, looked up): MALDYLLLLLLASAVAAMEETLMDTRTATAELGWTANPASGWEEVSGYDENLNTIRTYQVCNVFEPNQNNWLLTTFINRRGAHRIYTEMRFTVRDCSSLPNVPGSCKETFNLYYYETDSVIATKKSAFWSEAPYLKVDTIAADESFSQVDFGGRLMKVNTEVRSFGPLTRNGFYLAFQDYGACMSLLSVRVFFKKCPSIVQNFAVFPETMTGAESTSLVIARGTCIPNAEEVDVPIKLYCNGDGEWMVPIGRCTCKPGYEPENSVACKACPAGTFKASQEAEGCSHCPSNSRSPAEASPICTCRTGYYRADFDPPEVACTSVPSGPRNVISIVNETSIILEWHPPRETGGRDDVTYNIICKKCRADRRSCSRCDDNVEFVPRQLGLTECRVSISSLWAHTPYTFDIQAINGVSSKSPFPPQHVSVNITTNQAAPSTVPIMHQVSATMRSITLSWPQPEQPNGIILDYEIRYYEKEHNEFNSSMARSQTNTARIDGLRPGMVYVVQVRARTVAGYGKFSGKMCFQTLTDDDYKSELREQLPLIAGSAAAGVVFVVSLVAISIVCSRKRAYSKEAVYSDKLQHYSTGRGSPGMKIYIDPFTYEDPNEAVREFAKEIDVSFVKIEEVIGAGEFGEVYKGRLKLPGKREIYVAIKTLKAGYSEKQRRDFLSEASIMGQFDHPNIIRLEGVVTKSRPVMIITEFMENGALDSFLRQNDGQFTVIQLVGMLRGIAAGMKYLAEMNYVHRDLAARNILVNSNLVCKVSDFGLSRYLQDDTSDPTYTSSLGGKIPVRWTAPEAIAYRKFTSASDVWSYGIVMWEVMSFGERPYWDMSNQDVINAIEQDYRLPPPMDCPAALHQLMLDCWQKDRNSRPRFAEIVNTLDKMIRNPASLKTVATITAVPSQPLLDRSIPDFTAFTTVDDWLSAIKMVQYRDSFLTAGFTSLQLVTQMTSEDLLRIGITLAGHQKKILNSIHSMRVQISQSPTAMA
EPHB2, sequence (P29323 whole entry, looked up): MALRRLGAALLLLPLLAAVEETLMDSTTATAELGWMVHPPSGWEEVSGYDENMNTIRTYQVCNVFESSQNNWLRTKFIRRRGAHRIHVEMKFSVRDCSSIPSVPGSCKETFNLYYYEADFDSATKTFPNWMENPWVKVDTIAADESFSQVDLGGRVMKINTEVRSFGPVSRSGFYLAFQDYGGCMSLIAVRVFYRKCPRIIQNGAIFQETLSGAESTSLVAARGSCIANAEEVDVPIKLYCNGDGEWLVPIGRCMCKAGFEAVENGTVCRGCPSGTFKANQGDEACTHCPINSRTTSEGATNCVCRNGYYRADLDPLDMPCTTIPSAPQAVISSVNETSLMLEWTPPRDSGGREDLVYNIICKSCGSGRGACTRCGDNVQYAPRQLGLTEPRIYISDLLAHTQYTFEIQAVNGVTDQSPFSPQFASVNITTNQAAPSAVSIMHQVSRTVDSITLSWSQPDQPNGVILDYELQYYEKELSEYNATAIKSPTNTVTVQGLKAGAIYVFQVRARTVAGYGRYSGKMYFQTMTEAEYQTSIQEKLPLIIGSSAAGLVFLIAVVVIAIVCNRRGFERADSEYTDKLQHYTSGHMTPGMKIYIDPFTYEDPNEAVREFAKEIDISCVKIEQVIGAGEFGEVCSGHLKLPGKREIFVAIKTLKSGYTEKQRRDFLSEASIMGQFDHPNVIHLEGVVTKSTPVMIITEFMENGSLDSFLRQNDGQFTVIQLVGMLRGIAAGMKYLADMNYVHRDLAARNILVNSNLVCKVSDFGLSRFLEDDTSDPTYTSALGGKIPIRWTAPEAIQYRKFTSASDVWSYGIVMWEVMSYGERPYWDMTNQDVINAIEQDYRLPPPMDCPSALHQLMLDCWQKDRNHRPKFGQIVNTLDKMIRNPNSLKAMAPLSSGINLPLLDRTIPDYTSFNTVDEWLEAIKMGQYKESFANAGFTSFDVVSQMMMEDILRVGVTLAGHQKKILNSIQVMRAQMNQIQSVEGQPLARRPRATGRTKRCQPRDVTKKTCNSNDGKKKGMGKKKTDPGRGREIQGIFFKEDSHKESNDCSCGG
Fes, sequence (P07332 whole entry, looked up): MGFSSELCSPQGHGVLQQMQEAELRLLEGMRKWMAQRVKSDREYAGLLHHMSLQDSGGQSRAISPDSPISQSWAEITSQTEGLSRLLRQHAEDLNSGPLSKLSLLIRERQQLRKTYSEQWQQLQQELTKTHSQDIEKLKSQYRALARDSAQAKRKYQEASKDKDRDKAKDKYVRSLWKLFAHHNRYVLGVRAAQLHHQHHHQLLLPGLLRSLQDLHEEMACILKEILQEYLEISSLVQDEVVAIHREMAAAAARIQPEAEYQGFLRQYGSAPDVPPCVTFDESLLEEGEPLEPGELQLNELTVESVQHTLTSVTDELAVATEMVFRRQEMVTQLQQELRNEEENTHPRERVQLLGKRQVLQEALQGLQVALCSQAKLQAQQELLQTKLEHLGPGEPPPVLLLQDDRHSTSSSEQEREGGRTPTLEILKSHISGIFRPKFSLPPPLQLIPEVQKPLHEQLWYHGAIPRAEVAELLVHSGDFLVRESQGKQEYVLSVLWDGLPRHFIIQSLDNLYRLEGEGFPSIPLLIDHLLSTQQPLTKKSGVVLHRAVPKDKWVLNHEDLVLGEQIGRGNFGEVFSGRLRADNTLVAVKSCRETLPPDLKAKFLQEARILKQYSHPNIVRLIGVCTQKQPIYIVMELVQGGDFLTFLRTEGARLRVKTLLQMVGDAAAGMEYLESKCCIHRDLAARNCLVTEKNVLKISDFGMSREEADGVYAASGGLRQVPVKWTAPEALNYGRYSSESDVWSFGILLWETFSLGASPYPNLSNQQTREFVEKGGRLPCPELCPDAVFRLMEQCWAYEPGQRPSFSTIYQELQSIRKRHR
Grb2 SH2, sequence (P62993 whole entry, looked up): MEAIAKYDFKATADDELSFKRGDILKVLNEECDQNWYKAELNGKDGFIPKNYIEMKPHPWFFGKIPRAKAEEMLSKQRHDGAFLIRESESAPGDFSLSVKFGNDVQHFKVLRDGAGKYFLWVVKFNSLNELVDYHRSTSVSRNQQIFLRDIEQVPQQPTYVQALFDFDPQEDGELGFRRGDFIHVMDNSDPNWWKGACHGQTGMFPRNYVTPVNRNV
FGFR3, sequence (P22607 whole entry, looked up): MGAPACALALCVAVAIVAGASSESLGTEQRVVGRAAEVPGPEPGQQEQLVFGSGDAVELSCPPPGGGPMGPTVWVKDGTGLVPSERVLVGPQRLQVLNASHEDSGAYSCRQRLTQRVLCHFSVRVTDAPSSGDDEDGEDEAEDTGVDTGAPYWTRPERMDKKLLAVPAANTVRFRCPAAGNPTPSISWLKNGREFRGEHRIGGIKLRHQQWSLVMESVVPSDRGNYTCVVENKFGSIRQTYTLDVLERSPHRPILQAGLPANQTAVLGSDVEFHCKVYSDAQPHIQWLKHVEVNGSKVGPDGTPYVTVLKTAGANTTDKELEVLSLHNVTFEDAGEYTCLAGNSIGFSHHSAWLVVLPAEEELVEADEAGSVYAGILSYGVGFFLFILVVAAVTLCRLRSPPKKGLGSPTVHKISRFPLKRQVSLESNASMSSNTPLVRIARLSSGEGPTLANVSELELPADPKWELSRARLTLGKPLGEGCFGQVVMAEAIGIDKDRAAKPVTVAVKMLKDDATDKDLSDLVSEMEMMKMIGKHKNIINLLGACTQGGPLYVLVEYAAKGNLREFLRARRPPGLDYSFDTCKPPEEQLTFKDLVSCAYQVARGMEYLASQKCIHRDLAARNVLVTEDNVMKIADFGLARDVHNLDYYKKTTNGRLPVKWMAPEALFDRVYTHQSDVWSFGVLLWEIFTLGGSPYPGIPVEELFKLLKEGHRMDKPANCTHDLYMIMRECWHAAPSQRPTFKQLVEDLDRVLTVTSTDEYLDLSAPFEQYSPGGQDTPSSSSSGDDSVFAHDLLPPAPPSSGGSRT

As for KIVYVYVKKRS [DNAI2_Y7_E2K], the phosphorylation enrichment stood at 1.17 with Jak2; 0.515 with Fyn; 0.433 in the data set with c-Src; 0.507 with MERTK; 1.17 with Fes; 0.577 with EPHB1. For the same sequence, the phosphorylation enrichment in the data set with Fer (mouse) came out at 0.514; in the data set with FGFR1, 0.531; with FGFR3, 0.654; in the data set on c-Abl (mouse) it was 0.758; in the data set on AncSZ, 1.13; in the data set with Hck, 0.587. In the data set with EPHB2, the phosphorylation enrichment is 0.538. Further, the SH2 binding enrichment with Grb2 SH2 stood at 0.745; with SHP2-C SH2, 0.848; with c-Src SH2 it was 0.537.

Turning to EPVSDYINANI [PTPN11_Y304], the phosphorylation enrichment turned out to be 0.799 with Jak2; 0.447 with Fyn; 0.38 with c-Src; 0.325 with MERTK; 0.847 with Fes; 0.433 with EPHB1. Also, the phosphorylation enrichment turned out to be 0.412 in the data set with Fer (mouse); 0.454 with FGFR1; 0.673 with FGFR3; 0.603 in the data set with c-Abl (mouse); 0.997 with AncSZ; 0.541 with Hck. Besides, the phosphorylation enrichment with EPHB2 worked out at 0.495. Moreover, the SH2 binding enrichment with Grb2 SH2 worked out at 0.819; in the data set with SHP2-C SH2, 0.911; with c-Src SH2, 0.466.

As for IVGLLYRLLTE [SETX_Y1978], the phosphorylation enrichment was 1.13 with Jak2; 0.436 with Fyn; 0.539 in the data set on c-Src; 0.71 with MERTK; 1.35 with Fes; 0.665 with EPHB1. Also, the phosphorylation enrichment in the data set on Fer (mouse) came out at 0.561; in the data set with FGFR1, 0.699; with FGFR3, 0.937; in the data set with c-Abl (mouse), 0.733; in the data set with AncSZ, 1.29; with Hck, 0.596. In addition, in the data set with EPHB2, the phosphorylation enrichment came to 0.672. Also, the SH2 binding enrichment in the data set with Grb2 SH2 was 2.03; with SHP2-C SH2, 1.37; with c-Src SH2, 1.89.

For the sequence KHGGNYVPAPK [OSCP1_Y237], the phosphorylation enrichment in the data set with Jak2 turned out to be 0.692; in the data set with Fyn it was 0.359; with c-Src it was 0.491; in the data set with MERTK, 0.439; with Fes, 1.05; in the data set with EPHB1, 0.407. Besides, the phosphorylation enrichment with Fer (mouse) is 0.456; in the data set with FGFR1 it was 0.512; with FGFR3, 0.604; in the data set on c-Abl (mouse), 0.822; in the data set with AncSZ it was 0.7; in the data set with Hck, 0.529. In addition, the phosphorylation enrichment with EPHB2 was determined as 0.304. The SH2 binding enrichment with Grb2 SH2 was determined as 1.3; with SHP2-C SH2, 1.19; with c-Src SH2 it was 1.08.

On to DYYDLYGGEKK [PTPN11_Y66_F71K], for which the phosphorylation enrichment with Jak2 was 2.36; with Fyn, 4.04; in the data set with c-Src it was 3.65; in the data set with MERTK it was 2.72; with Fes, 1.17; with EPHB1 it was 6.24. The phosphorylation enrichment stood at 0.888 in the data set on Fer (mouse); 15.8 in the data set with FGFR1; 14.1 in the data set with FGFR3; 0.945 in the data set with c-Abl (mouse); 2.84 in the data set with AncSZ; 4.06 in the data set with Hck. The phosphorylation enrichment with EPHB2 was determined as 4.52. For the same sequence, the SH2 binding enrichment in the data set with Grb2 SH2 is 1.01; with SHP2-C SH2, 0.665; with c-Src SH2, 0.838.

Regarding DPADRYLTEQF [CDKL5_Y286_C291Y_YF], the phosphorylation enrichment with Jak2 is 1.11; with Fyn, 0.527; in the data set with c-Src it was 0.594; with MERTK it was 0.6; with Fes, 1.35; in the data set with EPHB1 it was 0.514. Besides, the phosphorylation enrichment in the data set with Fer (mouse) was 0.513; with FGFR1 it was 0.591; with FGFR3 it was 0.645; with c-Abl (mouse) it was 0.733; in the data set on AncSZ, 1.11; in the data set with Hck, 0.558. In the data set with EPHB2, the phosphorylation enrichment was found to be 0.747. In addition, the figures for the SH2 binding enrichment in the data set with Grb2 SH2, in the data set with SHP2-C SH2 and with c-Src SH2 were 0.889, 0.618 and 0.571, respectively.

For KIIATYRLCSE [DNAH3_Y1586_V1583I], the phosphorylation enrichment with Jak2 stood at 0.808; with Fyn it was 0.407; in the data set with c-Src, 0.421; with MERTK, 0.354; with Fes it was 0.951; with EPHB1, 0.596. In addition, the phosphorylation enrichment is 0.477 in the data set on Fer (mouse); 0.431 in the data set with FGFR1; 0.678 with FGFR3; 0.693 in the data set with c-Abl (mouse); 0.887 in the data set on AncSZ; 0.462 with Hck. In addition, the phosphorylation enrichment in the data set with EPHB2 worked out at 0.51. Also, the SH2 binding enrichment stood at 0.74 with Grb2 SH2, 0.611 with SHP2-C SH2 and 0.574 in the data set with c-Src SH2.

Consider RRSKMYLKTRS [LPL_Y329_S325R], for which the phosphorylation enrichment with Jak2 was determined as 0.889; with Fyn it was 0.708; with c-Src it was 1.03; in the data set with MERTK, 0.659; with Fes it was 0.709; with EPHB1, 0.448. Further, the phosphorylation enrichment in the data set on Fer (mouse) came to 0.514; with FGFR1, 0.599; with FGFR3 it was 0.571; in the data set with c-Abl (mouse), 0.578; in the data set with AncSZ, 0.728; in the data set with Hck, 0.602. For the same sequence, the phosphorylation enrichment in the data set with EPHB2 was 0.845. Further, the figures for the SH2 binding enrichment in the data set with Grb2 SH2, in the data set with SHP2-C SH2 and with c-Src SH2 were 0.981, 0.647 and 0.319, respectively.

With TTPFNYSFIFK [RAB14_Y8_A4T_YF], the phosphorylation enrichment in the data set with Jak2 was 0.941; with Fyn, 0.705; in the data set on c-Src it was 0.593; with MERTK it was 1.93; with Fes, 1.28; in the data set with EPHB1, 2.1. In addition, the phosphorylation enrichment came out at 0.74 in the data set with Fer (mouse); 0.725 with FGFR1; 0.793 with FGFR3; 0.86 in the data set with c-Abl (mouse); 1.2 in the data set on AncSZ; 0.695 with Hck. Further, in the data set with EPHB2, the phosphorylation enrichment worked out at 0.734. In addition, the SH2 binding enrichment with Grb2 SH2 was 1.1; with SHP2-C SH2 it was 1.82; in the data set with c-Src SH2, 1.86.
